{"source": "paper PMC5640846", "key": {"[1]": {"biological_target": "HTNV Gn ectodomain (Hantaan virus glycoprotein Gn, residues 18 to 371) (Hantaan virus (HTNV))", "experiment": "crystal structure"}, "[2]": {"biological_target": "HTNV Gn ectodomain (Hantaan virus glycoprotein Gn, residues 18 to 371) (Hantaan virus (HTNV))", "experiment": "AUC"}}, "note": "Where “and” joins values, the source holds several entries; their conditions need not be identical. Equal values may be shown once."}
{"substance": "HTNV Gn ectodomain (Hantaan virus glycoprotein Gn, residues 18 to 371) (domain or fragment)", "values": [{"measurement": "stoichiometry N", "setting": "[1]", "result": 4}, {"measurement": "stoichiometry N", "setting": "[2]", "result": "2 and 3 and 4"}]}
